We go through one molecule from patent US20130133089A1 (MEDICAL RESEARCH INFRASTRUCTURE AND HEALTH SERVICES FUND OF …, published 2013).

The test deals with T1, Recombinant human leptin binding domain (hLBD) (human, UniProt P48357 428-635, biotinylated with Sulfo-NHS-LC-Biotin in the yeast display assays; not labelled when immobilized in the plate binding assay).
T1 construct: CRH2 sub-domain of the leptin receptor; Prepared in the applicants' laboratory; also called soluble human leptin receptor; CHR2
T1 sequence (looked up): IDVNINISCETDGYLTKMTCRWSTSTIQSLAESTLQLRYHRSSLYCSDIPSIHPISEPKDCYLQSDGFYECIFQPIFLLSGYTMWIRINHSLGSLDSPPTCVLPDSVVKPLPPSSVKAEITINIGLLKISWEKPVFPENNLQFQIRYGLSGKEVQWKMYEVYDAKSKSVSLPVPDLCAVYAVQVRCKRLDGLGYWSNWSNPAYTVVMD
Nature of the test: competitive plate binding assay on immobilized hLBD (FIG. 12D). The protocol: Biotinylated mouse leptin served as the ligand in all competitive experiments and the respective mouse leptin or mouse or human leptin antagonist muteins as competitors. The hLBD was used as the receptor source. Polystyrene 96-well microtiter plates were coated overnight at 4° C. with 100 μl of 40 μM hLBD in PBS pH 7.4. Wells were then washed one time with PBST (PBS containing 0.05 Tween 20) and blocked with PBS containing 3% skim milk for two hours in room temperature. All further incubations were carried out at room temperature. Wells were washed one time with PBST and incubated with different concentrations of un-labeled leptins (50 μl/well) for 30 min and then 50 μl of 62.5 μM of biotinylated mouse leptin were added to each well for another two hours. Then the wells were washed three times with PBST and incubated with 1:30,000 streptavidin-HRP in PBS containing 1 Tween 20 for one hour. Subsequently the wells were washed three times with PBST and the reaction was quantified in 450 nm by microplate reader ELISA Plate Reader ELx808—Bio-Tek Instrument Inc. (Winooski, Vt., USA) using TMB according to manufacturer's instructions.

B1: pegylated human leptin super antagonist (PEG-SHLA) (ligand)
chain: VPIQKVQDDTKTLIKTIVTRINLISHTQSVSSKQKVTGAAAIPGLHPILTLSKMDQTLAVYQQILTSMPSQNVIQISNDLENLRDLLHVLAFSKSCHLPWASGLETLDSLGGVLEASGYSTEVVALSRLQGSLQDMLWQLDLSPGC
modifications: mPEG-propionyl-ALD 20 kDa, preferentially on the N-terminal amino group
As for B1, the “fold increase in the affinity due to D23L mutation (against PEG-HLA)” value was 80 fold.
